The results in this text go back to PMC11187071.

Experiment [1] deals with IgG150-18 (scFv150-18 cloned into human IgG format). The experiment is described as follows: FACS binding assay. Particulars: chain shown with the change, read off a plot. In general terms: Flow cytometry measures light scatter and fluorescence of single cells or particles in a stream.
Experiment [2] shares this target. Description: FACS assay on cells. Particulars: chain shown with the change; highest antibody concentration point, Log [IgG150_18] (M) about -7.5; parent: est. 100; read off a plot.
Setting [3] is: 100nM antibody, parent: est. 100.

IgG150-18 (scFv150-18 cloned into human IgG format), sequence (chain, as listed by the source, chain 1 of 2): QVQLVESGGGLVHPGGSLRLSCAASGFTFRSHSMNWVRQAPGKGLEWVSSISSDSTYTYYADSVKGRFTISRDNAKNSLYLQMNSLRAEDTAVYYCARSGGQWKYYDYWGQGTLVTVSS
IgG150-18 (scFv150-18 cloned into human IgG format), sequence (chain, as listed by the source, chain 2 of 2): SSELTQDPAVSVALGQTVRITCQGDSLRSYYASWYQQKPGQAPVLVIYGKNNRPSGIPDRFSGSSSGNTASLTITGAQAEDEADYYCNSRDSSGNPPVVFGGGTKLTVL

B1: WT GPRC5D expressed on HEK293T cells, Q9NZD1 E83A (protein)
chain: MYKDCIESTGDYFLLCDAEGPWGIILESLAILGIVVTILLLLAFLFLMRKIQDCSQWNVLPTQLLFLLSVLGLFGLAFAFIIALNQQTAPVRYFLFGVLFALCFSCLLAHASNLVKLVRGCVSFSWTTILCIAIGCSLLQIIIATEYVTLIMTRGMMFVNMTPCQLNVDFVVLLVYVLFLMALTFFVSKATFCGPCENWKQHGRLIFITVLFSIIIWVVWISMLLRGNPQFQRQPQWDDPVVCIALVTNAWVFLLLYIVPELCILYRSCRQECPLQGNACPVTAYQHSFQVENQELSRARDSDGAEEDVALTSYGTPIQPQTVDPTQECFIPQAKLSPQQDAGGV
For the molecule B1, the percent of parent is 5 % of WT in experiment [1] (1nM antibody, parent: est. 8); 72 % of WT in experiment [1] (10nM antibody, parent: est. 75); 95 % of WT in experiment [1] (setting [3]).

B2: WT GPRC5D expressed on HEK293T cells, Q9NZD1 E83G; L84G (protein)
chain: MYKDCIESTGDYFLLCDAEGPWGIILESLAILGIVVTILLLLAFLFLMRKIQDCSQWNVLPTQLLFLLSVLGLFGLAFAFIIGGNQQTAPVRYFLFGVLFALCFSCLLAHASNLVKLVRGCVSFSWTTILCIAIGCSLLQIIIATEYVTLIMTRGMMFVNMTPCQLNVDFVVLLVYVLFLMALTFFVSKATFCGPCENWKQHGRLIFITVLFSIIIWVVWISMLLRGNPQFQRQPQWDDPVVCIALVTNAWVFLLLYIVPELCILYRSCRQECPLQGNACPVTAYQHSFQVENQELSRARDSDGAEEDVALTSYGTPIQPQTVDPTQECFIPQAKLSPQQDAGGV
For the molecule B2, the percent of parent in experiment [2] was 97 % of WT.

B3: WT GPRC5D expressed on HEK293T cells, Q9NZD1 P235G; Q236G (protein)
chain: MYKDCIESTGDYFLLCDAEGPWGIILESLAILGIVVTILLLLAFLFLMRKIQDCSQWNVLPTQLLFLLSVLGLFGLAFAFIIELNQQTAPVRYFLFGVLFALCFSCLLAHASNLVKLVRGCVSFSWTTILCIAIGCSLLQIIIATEYVTLIMTRGMMFVNMTPCQLNVDFVVLLVYVLFLMALTFFVSKATFCGPCENWKQHGRLIFITVLFSIIIWVVWISMLLRGNPQFQRQGGWDDPVVCIALVTNAWVFLLLYIVPELCILYRSCRQECPLQGNACPVTAYQHSFQVENQELSRARDSDGAEEDVALTSYGTPIQPQTVDPTQECFIPQAKLSPQQDAGGV
For B3, the percent of parent in experiment [2] is 100 % of WT.

B4: WT GPRC5D expressed on HEK293T cells, Q9NZD1 T9A (protein)
chain: MYKDCIESAGDYFLLCDAEGPWGIILESLAILGIVVTILLLLAFLFLMRKIQDCSQWNVLPTQLLFLLSVLGLFGLAFAFIIELNQQTAPVRYFLFGVLFALCFSCLLAHASNLVKLVRGCVSFSWTTILCIAIGCSLLQIIIATEYVTLIMTRGMMFVNMTPCQLNVDFVVLLVYVLFLMALTFFVSKATFCGPCENWKQHGRLIFITVLFSIIIWVVWISMLLRGNPQFQRQPQWDDPVVCIALVTNAWVFLLLYIVPELCILYRSCRQECPLQGNACPVTAYQHSFQVENQELSRARDSDGAEEDVALTSYGTPIQPQTVDPTQECFIPQAKLSPQQDAGGV
Consider B4, for which the percent of parent in experiment [1] (1nM antibody, parent: est. 8) was 11 % of WT; in experiment [1] (10nM antibody, parent: est. 75), 82 % of WT; in experiment [1] (setting [3]), 100 % of WT.

B5: WT GPRC5D expressed on HEK293T cells, Q9NZD1 D11A (protein)
chain: MYKDCIESTGAYFLLCDAEGPWGIILESLAILGIVVTILLLLAFLFLMRKIQDCSQWNVLPTQLLFLLSVLGLFGLAFAFIIELNQQTAPVRYFLFGVLFALCFSCLLAHASNLVKLVRGCVSFSWTTILCIAIGCSLLQIIIATEYVTLIMTRGMMFVNMTPCQLNVDFVVLLVYVLFLMALTFFVSKATFCGPCENWKQHGRLIFITVLFSIIIWVVWISMLLRGNPQFQRQPQWDDPVVCIALVTNAWVFLLLYIVPELCILYRSCRQECPLQGNACPVTAYQHSFQVENQELSRARDSDGAEEDVALTSYGTPIQPQTVDPTQECFIPQAKLSPQQDAGGV
As for B5, the percent of parent in experiment [1] (setting [3]) was 42 % of WT.

B6: WT GPRC5D expressed on HEK293T cells, Q9NZD1 C16A (protein)
chain: MYKDCIESTGDYFLLADAEGPWGIILESLAILGIVVTILLLLAFLFLMRKIQDCSQWNVLPTQLLFLLSVLGLFGLAFAFIIELNQQTAPVRYFLFGVLFALCFSCLLAHASNLVKLVRGCVSFSWTTILCIAIGCSLLQIIIATEYVTLIMTRGMMFVNMTPCQLNVDFVVLLVYVLFLMALTFFVSKATFCGPCENWKQHGRLIFITVLFSIIIWVVWISMLLRGNPQFQRQPQWDDPVVCIALVTNAWVFLLLYIVPELCILYRSCRQECPLQGNACPVTAYQHSFQVENQELSRARDSDGAEEDVALTSYGTPIQPQTVDPTQECFIPQAKLSPQQDAGGV
In the case of B6, the percent of parent in experiment [1] (10nM antibody, parent: est. 75) is 1 % of WT.

B7: WT GPRC5D expressed on HEK293T cells, Q9NZD1 S8A (protein)
chain: MYKDCIEATGDYFLLCDAEGPWGIILESLAILGIVVTILLLLAFLFLMRKIQDCSQWNVLPTQLLFLLSVLGLFGLAFAFIIELNQQTAPVRYFLFGVLFALCFSCLLAHASNLVKLVRGCVSFSWTTILCIAIGCSLLQIIIATEYVTLIMTRGMMFVNMTPCQLNVDFVVLLVYVLFLMALTFFVSKATFCGPCENWKQHGRLIFITVLFSIIIWVVWISMLLRGNPQFQRQPQWDDPVVCIALVTNAWVFLLLYIVPELCILYRSCRQECPLQGNACPVTAYQHSFQVENQELSRARDSDGAEEDVALTSYGTPIQPQTVDPTQECFIPQAKLSPQQDAGGV
Take B7: the percent of parent in experiment [1] (1nM antibody, parent: est. 8) was 3 % of WT; in experiment [1] (10nM antibody, parent: est. 75) it was 65 % of WT; in experiment [1] (setting [3]) it was 92 % of WT.

B8: WT GPRC5D expressed on HEK293T cells, Q9NZD1 P235A (protein)
chain: MYKDCIESTGDYFLLCDAEGPWGIILESLAILGIVVTILLLLAFLFLMRKIQDCSQWNVLPTQLLFLLSVLGLFGLAFAFIIELNQQTAPVRYFLFGVLFALCFSCLLAHASNLVKLVRGCVSFSWTTILCIAIGCSLLQIIIATEYVTLIMTRGMMFVNMTPCQLNVDFVVLLVYVLFLMALTFFVSKATFCGPCENWKQHGRLIFITVLFSIIIWVVWISMLLRGNPQFQRQAQWDDPVVCIALVTNAWVFLLLYIVPELCILYRSCRQECPLQGNACPVTAYQHSFQVENQELSRARDSDGAEEDVALTSYGTPIQPQTVDPTQECFIPQAKLSPQQDAGGV
Take B8: the percent of parent in experiment [1] (10nM antibody, parent: est. 75) was 43 % of WT; in experiment [1] (setting [3]) it was 95 % of WT.

B9: WT GPRC5D expressed on HEK293T cells, Q9NZD1 L15A (protein)
chain: MYKDCIESTGDYFLACDAEGPWGIILESLAILGIVVTILLLLAFLFLMRKIQDCSQWNVLPTQLLFLLSVLGLFGLAFAFIIELNQQTAPVRYFLFGVLFALCFSCLLAHASNLVKLVRGCVSFSWTTILCIAIGCSLLQIIIATEYVTLIMTRGMMFVNMTPCQLNVDFVVLLVYVLFLMALTFFVSKATFCGPCENWKQHGRLIFITVLFSIIIWVVWISMLLRGNPQFQRQPQWDDPVVCIALVTNAWVFLLLYIVPELCILYRSCRQECPLQGNACPVTAYQHSFQVENQELSRARDSDGAEEDVALTSYGTPIQPQTVDPTQECFIPQAKLSPQQDAGGV
For B9, the percent of parent in experiment [1] (10nM antibody, parent: est. 75) was 38 % of WT; in experiment [1] (setting [3]) it was 63 % of WT.

B10: WT GPRC5D expressed on HEK293T cells, Q9NZD1 Q236A (protein)
chain: MYKDCIESTGDYFLLCDAEGPWGIILESLAILGIVVTILLLLAFLFLMRKIQDCSQWNVLPTQLLFLLSVLGLFGLAFAFIIELNQQTAPVRYFLFGVLFALCFSCLLAHASNLVKLVRGCVSFSWTTILCIAIGCSLLQIIIATEYVTLIMTRGMMFVNMTPCQLNVDFVVLLVYVLFLMALTFFVSKATFCGPCENWKQHGRLIFITVLFSIIIWVVWISMLLRGNPQFQRQPAWDDPVVCIALVTNAWVFLLLYIVPELCILYRSCRQECPLQGNACPVTAYQHSFQVENQELSRARDSDGAEEDVALTSYGTPIQPQTVDPTQECFIPQAKLSPQQDAGGV
As to B10, the percent of parent in experiment [1] (10nM antibody, parent: est. 75) was 53 % of WT; in experiment [1] (setting [3]), 75 % of WT.

B11: WT GPRC5D expressed on HEK293T cells, Q9NZD1 S8G; D11G; L15G; C16G; D17G (protein)
chain: MYKDCIEGTGGYFLGGGAEGPWGIILESLAILGIVVTILLLLAFLFLMRKIQDCSQWNVLPTQLLFLLSVLGLFGLAFAFIIELNQQTAPVRYFLFGVLFALCFSCLLAHASNLVKLVRGCVSFSWTTILCIAIGCSLLQIIIATEYVTLIMTRGMMFVNMTPCQLNVDFVVLLVYVLFLMALTFFVSKATFCGPCENWKQHGRLIFITVLFSIIIWVVWISMLLRGNPQFQRQPQWDDPVVCIALVTNAWVFLLLYIVPELCILYRSCRQECPLQGNACPVTAYQHSFQVENQELSRARDSDGAEEDVALTSYGTPIQPQTVDPTQECFIPQAKLSPQQDAGGV
Consider B11, for which the percent of parent in experiment [2] is 3 % of WT.

B12: WT GPRC5D expressed on HEK293T cells, Q9NZD1 R154G; V159G; N160G; T162G; P163G; L166G (protein)
chain: MYKDCIESTGDYFLLCDAEGPWGIILESLAILGIVVTILLLLAFLFLMRKIQDCSQWNVLPTQLLFLLSVLGLFGLAFAFIIELNQQTAPVRYFLFGVLFALCFSCLLAHASNLVKLVRGCVSFSWTTILCIAIGCSLLQIIIATEYVTLIMTGGMMFGGMGGCQGNVDFVVLLVYVLFLMALTFFVSKATFCGPCENWKQHGRLIFITVLFSIIIWVVWISMLLRGNPQFQRQPQWDDPVVCIALVTNAWVFLLLYIVPELCILYRSCRQECPLQGNACPVTAYQHSFQVENQELSRARDSDGAEEDVALTSYGTPIQPQTVDPTQECFIPQAKLSPQQDAGGV
Consider B12, for which the percent of parent in experiment [2] is 82 % of WT.

B13: WT GPRC5D expressed on HEK293T cells, Q9NZD1 S8G; D11G; L15G; C16G; D17G; E83G; L84G; R154G; V159G; N160G; T162G; P163G; L166G; P235G; Q236G (protein)
chain: MYKDCIEGTGGYFLGGGAEGPWGIILESLAILGIVVTILLLLAFLFLMRKIQDCSQWNVLPTQLLFLLSVLGLFGLAFAFIIGGNQQTAPVRYFLFGVLFALCFSCLLAHASNLVKLVRGCVSFSWTTILCIAIGCSLLQIIIATEYVTLIMTGGMMFGGMGGCQGNVDFVVLLVYVLFLMALTFFVSKATFCGPCENWKQHGRLIFITVLFSIIIWVVWISMLLRGNPQFQRQGGWDDPVVCIALVTNAWVFLLLYIVPELCILYRSCRQECPLQGNACPVTAYQHSFQVENQELSRARDSDGAEEDVALTSYGTPIQPQTVDPTQECFIPQAKLSPQQDAGGV
On to B13, for which the percent of parent in experiment [1] (10nM antibody, parent: est. 75) was 1 % of WT; in experiment [2], 12 % of WT.
